According to patent US12274759B2, “Affibody proteins specific for B7-H3 (CD276)” (THE BOARD OF TRUSTEES OF THE LELAND STANFORD JUNIOR …, priority 2018, dated 2025):

Biological target: T1, recombinant soluble human B7-H3 ectodomain protein (Homo sapiens, UniProt Q5ZPR3)
T1 construct: incubated with 3 μM of recombinant soluble human B7-H3 ectodomain protein
T1 sequence (Q5ZPR3 29-466 limits assumed): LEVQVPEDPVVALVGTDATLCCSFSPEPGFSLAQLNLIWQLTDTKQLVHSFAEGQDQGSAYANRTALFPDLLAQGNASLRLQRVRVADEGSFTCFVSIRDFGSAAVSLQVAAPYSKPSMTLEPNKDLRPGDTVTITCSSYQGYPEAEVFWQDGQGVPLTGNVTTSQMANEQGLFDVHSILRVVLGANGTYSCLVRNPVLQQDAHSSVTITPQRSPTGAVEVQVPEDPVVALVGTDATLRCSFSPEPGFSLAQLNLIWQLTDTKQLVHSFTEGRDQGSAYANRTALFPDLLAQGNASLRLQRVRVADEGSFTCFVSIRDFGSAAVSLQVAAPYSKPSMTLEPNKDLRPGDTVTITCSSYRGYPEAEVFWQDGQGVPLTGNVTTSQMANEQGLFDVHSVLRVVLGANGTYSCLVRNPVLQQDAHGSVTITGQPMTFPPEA
Assay: Streptavidin bead binding to recombinant soluble human B7-H3 ectodomain by flow cytometry
Details: ligand immobilized to streptavidin magnetic beads; 3 μM recombinant soluble human B7-H3 ectodomain
Text: FIG. 9. Production and validation of ABYB7-H3.(A) Left panel: Commassie Blue staining of SDS-PAGE showing high purity and expected size (7,490 Da) of finalized ABYB7-H3 produced in E. Coli. Right panel: Mass spectrometric analysis of ABYB7-H3 showing a mass-to-charge peak (m/z=7,546) corresponding to ABY molecular weight. A doubly charged peak (m/z=3763) is also present. Amino acid sequence of ABYB7-H3 (SEQ ID NO:28) is shown on the bottom. (B) Flow cytometry of biotin-ABYB7-H3 conjugated streptavidin-microbeads complex showing binding to soluble recombinant B7-H3 (3 μM) as detected by APC conjugated anti-B7-H3 antibody. Unconjugated beads (negative control) and anti B7-H3 antibody (AB) conjugated beads (positive control) were also tested for binding to soluble B7-H3 antigen.
Production of ABYB7-H3. Development of a B7-H3-binding ligand from an ABY yeast display library is described in Example 1. […] ABYB7-H3 ligand was recombinantly expressed in E. coli, purified, and functionalized with 1:1 molar ratio of biotin. […] In order to confirm binding specificity of recombinantly produced ABYB7-H3 to its target, biotinylated-ABY was immobilized to streptavidin- magnetic beads and incubated with 3 μM of recombinant soluble human B7-H3 ectodomain protein.

binding to soluble B7-H3: 81%
B1: anti- B7-H3 antibody: biotinylated anti-B7-H3 antibody conjugated to beads as positive control (protein)
VHH: QVQLVESGGGLVQPGGSLRLSCAASGFTFSSYWMYWVRQTPGKGLEWVSTINRDGSATWYADSVKGRFTISRDNAKNTGYLQMNSLKPDDTAVYYCVSDPDNYSSDEMVPYWGQGTQVTVSS
